Measurements from publication PMC3573263 (Chemical biology & drug design, 2013).
[ ]: non-standard residue; d: D form. The star is where a group is joined. Biotin = O=C1N[C@H]2[C@H](CS[C@H]2CCCCC(=O)*)N1; pY = N[C@@H](Cc1ccc(OP(=O)(O)O)cc1)C(=O)O

Molecular target: YopH PTPase domain (active catalytic domain, residues 164-468), wild type (Yersinia pestis, UniProt O68720 164-468)
Test: SPR

B1: biotinylated pTyr-EGFR peptide, biotin-LVDADEpYLIPQQG-COOH (peptide)
peptide: Biotin-LVDADE[pY]LIPQQG-OH
SMILES: CC[C@H](C)[C@H](NC(=O)[C@H](CC(C)C)NC(=O)[C@H](Cc1ccc(OP(=O)(O)O)cc1)NC(=O)[C@H](CCC(=O)O)NC(=O)[C@H](CC(=O)O)NC(=O)[C@H](C)NC(=O)[C@H](CC(=O)O)NC(=O)[C@@H](NC(=O)[C@H](CC(C)C)NC(=O)CCCC[C@@H]1SC[C@@H]2NC(=O)N[C@@H]21)C(C)C)C(=O)N1CCC[C@H]1C(=O)N[C@@H](CCC(N)=O)C(=O)N[C@@H](CCC(N)=O)C(=O)NCC(=O)O
Binder B1 has a koff of 0.0214 s⁻¹ and a kon of 34.9 M⁻¹ s⁻¹.
